Source: the RNAGym collection of RNA variant scans (doi:10.7554/elife.90254)

B1: LINE1-full (parent)
chain: UACGUAGGUGGUUUUCCCCUGAUAGUGCUAAGGGGGCCUGGAAGUUUGGACUGGGCAGAGCUCAACACAGCGUGGCAAAGUGGCUGUGGCUAGACUGCCUCUCUGGAUUCCUCGUCACUCAGCAGGGCAUCUCUGAGAGAAAUGCC

Variants of: B1
Experiment: self-cleavage, relative activity (ratio to wild type); higher = more cleavage; in vitro, sequencing; the parent is a self-cleaving ribozyme

In order of falling self-cleavage:
1. UACGUAGGUGGUUUUCCCCUGAUAGUGCCAAGGGGGCCUGGAAGUUUGGACUGGGCAGAGCUCAACACAGCGUGGCAAAGUGGCUGUGGCUAGACUGCCUCUCUGGAUUCCUCGUCACUCAGCAGGGCGUCUCUGAGAGAAAUGCC  2.12
2. UACGUAGGUGGUUUUCCCCUGAUAGUGCCAAGGGGGCCUGGAAGUUUGGACUGGGCAGAGCUCAACACAGCGUGGCAAAGUGGCUGUGGCUAGACUGCCUCUCUGGAUUCCUCGUCACUCCGCAGGGCAUCUCUGAGAGAAAUGCC  1.93
3. UACGUAGGUGGUUUUCCCCUGAUAGUGCCAAGGGGGCCUGGAAGUUUGGACUGGGCAGAGCUCAACACAGCGUGGCAAAGUGGCUGUGGCUAGACUGCCUCUCUGGAUUCCUCGUCACUCAGCAGGGCAUCUCUGAGGGAAAUGCC  1.72
4. UACGUAGGUGGUUUUCCCCUGAUAGUGCCAAGGGGGCCUGGGAGUUUGGACUGGGCAGAGCUCAACACAGCGUGGCAAAGUGGCUGUGGCUAGACUGCCUCUCUGGAUUCCUCGUCACUCAGCAGGGCAUCUCUGAGAGAAAUGCC  1.66
5. UACGUAGGUGGUUUUCCCCUGAUAGUGCCAAGGGGGCCUGGAAGUUUGGACUGGGCAGAGCUCAACACAGCGUGGCUAAGUGGCUGUGGCUAGACUGCCUCUCUGGAUUCCUCGUCACUCAGCAGGGCAUCUCUGAGAGAAAUGCC  1.63
6. UACGUAGGUGGUUUUCCCCUGAUAGUGCCAAGGGGGCCUGGAAGUUUGGACUGGGCAGAGCUCAACACAGCGUGGCAAAGUGGCUGUGGCUAGACUGCCUCUCUGGAUUCCUCGUCACUCAGCAGGGCAUCUCUGUGAGAAAUGCC  1.54
7. UACGUAGGUGGUUUUCCCCUGAUAGUGCCAAGGGGGCCUGGAAGUUUGGACUGGGCAGAGCUCAACACAGCGUGGCAAAGUGGCUGUGGCUAGACUGCCUCUCUGGAUUCCUCGUCACUCUGCAGGGCAUCUCUGAGAGAAAUGCC  1.5
8. UACGUAGGUGGUUUUCCCCUGAUAGUGCCAAGGGGGCCUGGAAGUUUGGACUGGGCAGAGCUCAACACAGCGUGGCAAAGUGGCUGUGGCUAGACUGCCUCUCUGGAUUCCUCGUCACUCAGCAGGGCAUCUCUGAGAGAAAUGCC  1.28
9. UACGUAGGUGGUUUUCCCCUGAUAGUGCCAAGGGGGCCUGGAAGUUUGGACUGGGCAGAGCUCAACACAGCGUGGCAAAGUGGCUGUGGCUAGACUGCCUCUCUGGAUUCCUCGUCACUAAGCAGGGCAUCUCUGAGAGAAAUGCC  1.24
10. UACGUAGGUGGUUUUCCCCUGAUAGUGCCAAGGGGGCCUGGAAGUUUGGACUGGGCAGAGCUCAACACAGCGUGGCAAAGUGGCUGUGGCUAGACUGCCUCUCUGGAUUCAUCGUCACUCAGCAGGGCAUCUCUGAGAGAAAUGCC  1.24
11. UACGUAGGUGGUUUUCCCCUGAUAGUGCCAAGGGGGCCUGGAAGUUUGGACUGGGCAGAGCUCAACACAGCGUGGCAAAGUGGCUGUGGCUAGACUGCCUCUCUGGAUUCCUCGUCACUCAGCCGGGCAUCUCUGAGAGAAAUGCC  1.23
12. UACGUAGGUGGUUUUCCCCUGAUAGUGCCAAGGGGGCCUGGAAGUUUGGACUGGGCAGAGCUCAACACAGCGUGGCAAAGUGGCUGUGGCUAGACUGCCUCUCUGGUUUCCUCGUCACUCAGCAGGGCAUCUCUGAGAGAAAUGCC  1.21
13. UACGUAGGUGGUUUUCCCCUGAUAGUGCCAAGGGGGCCUGGAAGUUUGGACUGGGCAGAGCUCAACACAGCGUGGCAAAGUGGCUGUGGCUAGACUGCCUCUCUGGAUUCCUCGUCACUCAGUAGGGCAUCUCUGAGAGAAAUGCC  1.21
14. UACGUAGGUGGUUUUCCCCUGAUAGUGCCAAGGGGGCCUGGAAGUUUGGACUGGGCAGAGCUCAACACAGCGUGGCAAAGUGGCUGUGGCUAGACUGCCUCUCUGGAUUCCUCGUCACUCAGCAGGGCAUCUCUGAGAGGAAUGCC  1.2
15. UACGUAGGUGGUUUUCCCCUGAUAGUGCCAAGGGGGCCUGGAAGUUUGGACUGGGCAGAGCUCAACACAGCGUGGCAGAGUGGCUGUGGCUAGACUGCCUCUCUGGAUUCCUCGUCACUCAGCAGGGCAUCUCUGAGAGAAAUGCC  1.17
16. UACGUAGGUGGUUUUCCCCUGAUAGUGCAAAGGGGGCCUGGAAGUUUGGACUGGGCAGAGCUCAACACAGCGUGGCAAAGUGGCUGUGGCUAGACUGCCUCUCUGGAUUCCUCGUCACUCAGCAGGGCAUCUCUGAGAGAAACGCC  1.16
17. UACGUAGGUGGUUUUCCCCUGAUAGUGCCAGGGGGGCCUGGAAGUUUGGACUGGGCAGAGCUCAACACAGCGUGGCAAAGUGGCUGUGGCUAGACUGCCUCUCUGGAUUCCUCGUCACUCAGCAGGGCAUCUCUGAGAGAAAUGCC  1.14
18. UACGUAGGUGGUUUUCCCCUGAUAGUGCCAAGGGGGCCUGGAAGUUUGGUCUGGGCAGAGCUCAACACAGCGUGGCAAAGUGGCUGUGGCUAGACUGCCUCUCUGGAUUCCUCGUCACUCAGCAGGGCAUCUCUGAGAGAAAUGCC  1.14
19. UACGUAGGUGGUUUUCCCCUGAUAGUGCCAAGGGGGCCUGGAAGUUUGGACUGGGCAGUGCUCAACACAGCGUGGCAAAGUGGCUGUGGCUAGACUGCCUCUCUGGAUUCCUCGUCACUCAGCAGGGCAUCUCUGAGAGAAAUGCC  1.13
20. UACGUAGGUGGUUUUCCCCUGAUAGUGCCAAGGGGGCCUGGAAGUUUGGACUGGGCAGAGCUCAACACAGCGUGGCAAAGUGGCUGUGGCUAGACUGCCUCUCUGGAUUCCUCGUCACUCAGCUGGGCAUCUCUGAGAGAAAUGCC  1.04
21. UACGUAGGUGGUUUUCCCCUGAUAGUGCCAAGGGGGCCUGGAAGUUUGGACUGGGCAGAGCUCAACACAGCGUGGCAAAGUGGCUGUGGCUAGACUGCCUCUCUGGAUUCCUCGUCACUCAGCGGGGCAUCUCUGAGAGAAAUGCC  1.02
22. UACGUAGGUGGUUUUCCCCUGAUAGUGCCAAGGGGGCCUGGAAGUUUGGACUGGGCAGAGCUCAACACAGCGUGGCAAAGUGGCUGUGGCUAGACUGCCUCUCUGGAUUCCUCGUUACUCAGCAGGGCAUCUCUGAGAGAAAUGCC  0.85
23. UACGUAGGUGGUUUUCCCCUGAUAGUGCCAAGGGGGCCUGGAAGUUUGGACUGGGCAGAGCUCAACACAGCGUGGCCAAGUGGCUGUGGCUAGACUGCCUCUCUGGAUUCCUCGUCACUCAGCAGGGCAUCUCUGAGAGAAAUGCC  0.85
24. UACGUAGGUGGUUUUCCCCUGAUAGUGCCAAGGGGGCCUGGAAGUUUGGACUGGGCAGAGCUCAACGCAGCGUGGCAAAGUGGCUGUGGCUAGACUGCCUCUCUGGAUUCCUCGUCACUCAGCAGGGCAUCUCUGAGAGAAAUGCC  0.76
25. UACGUAGGUGGUUUUCCCCUGAUAGUGCCAAGGGGGCCUGGAAGUUUGGACUGGGCAGAGCUCAACACAGCGUGGCAAAGUGGCUGUGGCUAGACUGCCUCUCUGGGUUCCUCGUCACUCAGCAGGGCAUCUCUGAGAGAAAUGCC  0.7
26. UACGUAGGUGGUUUUCCCCUGAUAGUGCCAAGGGGGCCUGGAAGUUUGGACUGGGCAGAGCUCCACACAGCGUGGCAAAGUGGCUGUGGCUAGACUGCCUCUCUGGAUUCCUCGUCACUCAGCAGGGCAUCUCUGAGAGAAAUGCC  0.61
27. UACGUAGGUGGUUUUCCCCUGAUAGUGCCAAGGGGGCCUGGAAGUUUGGACUGGGCAGAGCUCAACACAGCGUGGCAAAGUGGCUGUGGCUAGGCUGCCUCUCUGGAUUCCUCGUCACUCAGCAGGGCAUCUCUGAGAGAAAUGCC  0.54
28. UACGUAGGUGGUUUUCCCCUGAUAGUGCCAAGGGGGCCUGGAAGUUUGGACUGGGCAGAGCUUAACACAGCGUGGCAAAGUGGCUGUGGCUAGACUGCCUCUCUGGAUUCCUCGUCACUCAGCAGGGCAUCUCUGAGAGAAAUGCC  0.48
29. UACGUAGGUGGUUUUCCCCUGAUAGUGCCAAGGGGGCCUGGAAGUUUGGACUGGGCAGAGCUCAACACAGCGUGGCAAAGUGGCUGUGGCUAGACUGCCUCUCUGGAUUCCUCGUCGCUCAGCAGGGCAUCUCUGAGAGAAAUGCC  0.44
30. UACGUAGGUGGUUUUCCCCUGAUAGUGCCAAGGGGGCCUGGAAGUUUGGACUGGGCAGAGCUCGACACAGCGUGGCAAAGUGGCUGUGGCUAGACUGCCUCUCUGGAUUCCUCGUCACUCAGCAGGGCAUCUCUGAGAGAAAUGCC  0.38
31. UACGUAGGUGGUUUUCCCCUGAUAGUGCCAAGGGGGCCUGGAAGUUUGGACUGGGCAGAGCUCAACACAGCGUGGCAAAGUGGCUGUGGCUGGACUGCCUCUCUGGAUUCCUCGUCACUCAGCAGGGCAUCUCUGAGAGAAAUGCC  0.21
32. UACGUAGGUGGUUUUCCCCUGAUAGUGCCAAGGGGGCCUGGAAGUUUGGACUGGGCAGGGCUCAACACAGCGUGGCAAAGUGGCUGUGGCUAGACUGCCUCUCUGGAUUCCUCGUCACUCAGCAGGGCAUCUCUGAGAGAAAUGCC  0.16
33. UACGUAGGUGGUUUUCCCCUGAUAGUGCCAAGGGGGCCUGGAAGUUUGGACUGGGCAGAGCUCAACACAGCGUGGCAAAGUGGGUGUGGCUAGACUGCCUCUCUGGAUUCCUCGUCACUCAGCAGGGCAUCUCUGAGAGAAAUGCC  0.14
34. UACGUAGGUGGUUUUCCCCUGAUAGUGCCAAGGGGGCCUGGAAGUUUGGACUGGGCAGAGCUCAACUCAGCGUGGCAAAGUGGCUGUGGCUAGACUGCCUCUCUGGAUUCCUCGUCACUCAGCAGGGCAUCUCUGAGAGAAAUGCC  0.12
35. UACGUAGGUGGUUUUCCCCUGAUAGUGCCAAGGGGGCCUGGAAGUUUGGACUGGGCAGAGCUCAACACUGCGUGGCAAAGUGGCUGUGGCUAGACUGCCUCUCUGGAUUCCUCGUCACUCAGCAGGGCAUCUCUGAGAGAAAUGCC  0.11
36. UACGUAGGUGGUUUUCCCCUGAUAGUGCCAAGGGGGCCUGGAAGUUUGGACUGGGCAGAGCUCACCACAGCGUGGCAAAGUGGCUGUGGCUAGACUGCCUCUCUGGAUUCCUCGUCACUCAGCAGGGCAUCUCUGAGAGAAAUGCC  0.1
37. UACGUAGGUGGUUUUCCCCUGAUAGUGCCAAGGGGGCCUGGAAGUUUGGACUGGGCAGAGCUCAGCACAGCGUGGCAAAGUGGCUGUGGCUAGACUGCCUCUCUGGAUUCCUCGUCACUCAGCAGGGCAUCUCUGAGAGAAAUGCC  0.09
38. UACGUAGGUGGUUUUCCCCUGAUAGUGCCAAGGGGGCCUGGAAGUUUGGACUGGGCAGAGCUAAACACAGCGUGGCAAAGUGGCUGUGGCUAGACUGCCUCUCUGGAUUCCUCGUCACUCAGCAGGGCAUCUCUGAGAGAAAUGCC  0.07
39. UACGUAGGUGGUUUUCCCCUGAUAGUGCCAAGGGGGCCUGGAAGUUUGGACUGGGCAGAGCUCAAUACAGCGUGGCAAAGUGGCUGUGGCUAGACUGCCUCUCUGGAUUCCUCGUCACUCAGCAGGGCAUCUCUGAGAGAAAUGCC  0.07
